Reference: the nanobody polyreactivity screen of Harvey et al. (2022)

Experiment: yeast display, Sf9 membrane polyspecificity reagent, FACS + sequencing; frameworks hold sequencing errors
How it was run: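 Genes from sorted yeast were amplified by colony PCR, read by MiSeq 2 × 250 sequencing and filtered on CDR length. These cells carried a synthetic nanobody library in Saccharomyces cerevisiae BJ5465 and were sorted by FACS into low and high (top ~1%) gates on anti-HA and streptavidin fluorescence. Polyreactivity is labelled according to the gate of origin.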
For “QVQLVESGGGLVQAGGSLRLSCAASGFIFYSNAMGWYRQAPGKERELVAGISRGGSTYYADSVKGRFTISRDNAKNTVYLQMNRLKPEDTAVYYCAAKISLGDDYWGQGTQVTVSS”, the “polyreactivity (PSR sort gate)” value was “low polyreactivity”. In the case of “QVQLVESGGGLVQAGGSLRLSCAASGFIFYSNPMGWYRQAPGKERELVAAITSGGSTYYADSVKGRFTISRDNAKNTVYLQMNSLKPEETAVYYCAAVVRVYFRGFTSYDYWGQGTQVTVSS”, the “polyreactivity (PSR sort gate)” value is reported as “high polyreactivity”. For “QVQLVESGGGLVQAGGSLRLSCAASGFIFYTYAMGWSRLAPGKEREFVASISKSGGRTYYADSVKRRFTMSRDNAKNTVYLQMISLKPEVTAVYYCNAYRSTHFFSYRDDYWGQGTQVTVSS”, the “polyreactivity (PSR sort gate)” value was “high polyreactivity”. With “QVQLVESGGGLVQAGGSLRLSCAASGFIFYVNDMGWYRQAPGKERELVADISGGTSTNYADSVKGRFTMSRDNAKNTVYLQMNSLNPEDTAVYYCNKYVAYDYWGQGTQVTVSS” the “polyreactivity (PSR sort gate)” value was “low polyreactivity”. In the case of “QVQLVESGGGLVQAGGSLRLSCAASGFIFYYAMGWYRPAPGKERELVAAISSGSSTYADSVKGRFTISRDNAKNTVYLQMNSLKPEDTAVYYCATRYSSWYSNRDYDYWGQGTQVTVSS”, the “polyreactivity (PSR sort gate)” value is reported as “low polyreactivity”. With “QVQLVESGGGLVQAGGSLRLSCAASGFIFYYNAMGWSRQAPGKERELVASISRDCGRTYYADSVKGRFTISRDNAKNTVYLQMNSLKPEDTAVYYCAKKRINSRKYDYWGQGPQVTVSS” the “polyreactivity (PSR sort gate)” value was “low polyreactivity”. In the case of “QVQLVESGGGLVQAGGSLRLSCAASGFIFYYNAMGWYRQAPGKERELVAAISSSAGSTYYADSVKGRFTISRDNAKNTVYLQMNSLKPEDTAVYYCDGSRPPNTSNTGYGSWGQGTQVTVSS”, the “polyreactivity (PSR sort gate)” value is reported as “low polyreactivity”. With “QVQLVESGGGLVQAGGSLRLSCAASGFIFYYNDMGWYRQAPGKERELVAAISGGVGSTYYADSVKGRFTISRDNAKNTVYLQMNSLKPEDSAVYYCATRRYSLTYGLGYDYWGQGTQVTVSS” the “polyreactivity (PSR sort gate)” value was “low polyreactivity”. With “QVQLVESGGGLVQAGGSLRLSCAASGFIFYYNTMGWYRQAPGKERELVAAISSGGRTYYADSVKGRFTISRDNAKNTVYLQMNSLKPEVTAVYYCNVVTYVKYGYWGQGTQVTVSS” the “polyreactivity (PSR sort gate)” value was “high polyreactivity”. With “QVQLVESGGGLVQAGGSLRLSCAASGFIFYYYAMGWYRQAPGKEREFVAGISRSGGSTYYADSVKGRFTISRDHAKNTVNLLQNSLKTEDTAVYYCNARPLYHFWYYSGEEYGYWGQGTQVTVSS” the “polyreactivity (PSR sort gate)” value was “high polyreactivity”. With “QVQLVESGGGLVQAGGSLRLSCAASGFIFYYYAMGWYRQAPGKERELVAGITATGGSTYYADSVKGRFTISRDNAKNTVYLQMNSLKPEDTAVYYCARGPSGTPNGNTPYGDNRYNSWGQGTQVTVSS” the “polyreactivity (PSR sort gate)” value was “low polyreactivity”. In the case of “QVQLVESGGGLVQAGGSLRLSCAASGFIFYYYDMGWYRQAPGKERELVAAITYDGGSTYYADSVKGRFTSSRDNAKNTVYLQMNSLKPEDTAVYYCNAVYGQYYDYWGQGTQVTVSS”, the “polyreactivity (PSR sort gate)” value is reported as “low polyreactivity”. With “QVQLVESGGGLVQAGGSLRLSCAASGFIFYYYTMGWYRQAPGKEREFVAAISSSGTITYYADSVKGRFTISRDNAKNTVYLQMNSLKPEDTAVYYCNAELYYPYEFWRFSGYDYWGQGTQVTVSS” the “polyreactivity (PSR sort gate)” value was “low polyreactivity”. In the case of “QVQLVESGGGLVQAGGSLRLSCAASGFIFYYYTMVWYRQAPGKERELVAAIRTGGGTNYADSVKGRFTISRDNAKNTVYLQRNSLKPEDTAVYYCAKGRQGVSYLTGTYGGRDYWGQGTQVTVSS”, the “polyreactivity (PSR sort gate)” value is reported as “low polyreactivity”. For “QVQLVESGGGLVQAGGSLRLSCAASGFIIDEYAMGWYRQAPGKERELVAAISWSGSRTYYADSVKGRFTISRDNAKNTVYLQMNSLKPEDTAVYYCAKVTGVGAGRRIYWGQGTQVTVSS”, the “polyreactivity (PSR sort gate)” value was “low polyreactivity”. For “QVQLVESGGGLVQAGGSLRLSCAASGFIIDRNAMGWSRPAPGKERELVAAITWSTTSTYYADSVKGRFTISRDNAKNTVYLQMNSLKPEDTAVYYCAADITSPAYATYDYWGQGTQVTVSS”, the “polyreactivity (PSR sort gate)” value was “low polyreactivity”. With “QVQLVESGGGLVQAGGSLRLSCAASGFIIDRYAMGWYRQAPGKERELVARISWSGGSTYYADSVKGRFTISRDNAKNTVYLQMNSLKPEDTAVYYCNKAAWWLQSRYDYWGQGTQVTVSS” the “polyreactivity (PSR sort gate)” value was “high polyreactivity”. With “QVQLVESGGGLVQAGGSLRLSCAASGFIIEAYTMGWYRQAPGKERELVAAITWTGGSTYYADSVKGRFTISRDNAKNTVYLQMNSLKPEDTAVYYCNVPYYSFRELSSYYWGQGTQVTVSS” the “polyreactivity (PSR sort gate)” value was “high polyreactivity”. For “QVQLVESGGGLVQAGGSLRLSCAASGFIIFQYAMGLYRQAPGKERELVAAISGSGVTTYYADSVKGRFTISRDNAKNNVYLQMNSLKPEDTAVYYCNAALSWKYDWGQGTQVTVSS”, the “polyreactivity (PSR sort gate)” value was “low polyreactivity”. For “QVQLVESGGGLVQAGGSLRLSCAASGFIINGNDMGWYRQAPGKERELVAAISSSGGSTYYADSVKGRFTISRDNAKNTVYLQMNSRTPEDSAVYYCARRGKQVSGRYYYWGQGTQVSVSS”, the “polyreactivity (PSR sort gate)” value was “high polyreactivity”. For “QVQLVESGGGLVQAGGSLRLSCAASGFIIPDYAMGWYRQAPVKERELVAAITSSGGRTYYADSVKVRFTISRDNAKNTVYLQMNSLIPEDTAVYYCAARTNSPRGYGSDYWGQGTQVTVSS”, the “polyreactivity (PSR sort gate)” value was “high polyreactivity”. In the case of “QVQLVESGGGLVQAGGSLRLSCAASGFIISGYAMGWYRQAPGKERELVAAISWSGGRTYYADSVKGRFTISRDNAKNTVYLQMKSLKPEDTAVYYFAADGYYRDWYGYGYWGLGTQVTVSS”, the “polyreactivity (PSR sort gate)” value is reported as “high polyreactivity”. With “QVQLVESGGGLVQAGGSLRLSCAASGFIISRNAMGWYRQAPGKERELVAAIRTRTGSTYYADSVKGRFTISRDNAKNTVYLQMNSLKPEDTAVYYCNAYPYVNGRYGSWGQGTQVTVSS” the “polyreactivity (PSR sort gate)” value was “high polyreactivity”. For “QVQLVESGGGLVQAGGSLRLSCAASGFIISYYAMGWYRQAPGKDRELVAAISWRGGSTYYADSVKGRFTISRDNAKNTVYLQMNSLKPEDTAVYYCAADFLYGAEGNDYWGQGTQVTVSS”, the “polyreactivity (PSR sort gate)” value was “high polyreactivity”. In the case of “QVQLVESGGGLVQAGGSLRLSCAASGFIISYYAMGWYRQAPGKERELVATINFSGAGTSYADSVKGRFTISRDNAKNTVYLQMNSLKPEDTAVYYCAARTNSPRGYGSDYWGQGTQVTVSS”, the “polyreactivity (PSR sort gate)” value is reported as “high polyreactivity”. For “QVQLVESGGGLVQAGGSLRLSCAASGFIITSYAMGWYRQAPGKERELVATISSSGGTTYYADSVKGRFTISRDTAKNTVYLQMNSLKPEDTAVYYCAKDAFGWGRVYYYRSGYWGQGTQVTVSS”, the “polyreactivity (PSR sort gate)” value was “high polyreactivity”. With “QVQLVESGGGLVQAGGSLRLSCAASGFIIYLYAMGWSRQAPGKERELLAAISRGGGTTYYADSVKGRFTISRDYAQNTVYLQMNSLKPEDTAVYYCAAETEYYSYRFDYWGQGTQVSVSS” the “polyreactivity (PSR sort gate)” value was “high polyreactivity”. For “QVQLVESGGGLVQAGGSLRLSCAASGFIIYSYAMGWYRQAPGKERELVAGITSDGRTYYADSVKGRFTISRDNAKNTVYLQMNSLKPEDTAVYYCAARYYLFYRVSPYYYWGQGTQVTVSS”, the “polyreactivity (PSR sort gate)” value was “low polyreactivity”. For “QVQLVESGGGLVQAGGSLRLSCAASGFILGRYAMGWYRQAPGKERELVAAISIGGRTNYADSVKGRFTISRDNAKITVYFQMNSLKPEDTAVYYCATSFAVLLSQVDYWGQGTQVTVSS”, the “polyreactivity (PSR sort gate)” value was “low polyreactivity”. With “QVQLVESGGGLVQAGGSLRLSCAASGFILKDNAMGWYRQAPGKERELVAAISSGGGTYYADSVKGRFTISRDNAKNTVSLKMNSLKPEDTAVYYCNADDLYSLNDSSEDYWGQGTQVTVSS” the “polyreactivity (PSR sort gate)” value was “high polyreactivity”. In the case of “QVQLVESGGGLVQAGGSLRLSCAASGFILKPNAMGWYRQAPGKERELVAAISWSSGSTYYADSVKGRFTISRDNAKNTVYLQMNSLKPEDTAVYYCAKDLTQIYYGDDYWGQGTQVTVSS”, the “polyreactivity (PSR sort gate)” value is reported as “low polyreactivity”. With “QVQLVESGGGLVQAGGSLRLSCAASGFILPYYAMGWYRQAPGKERELVAAISDTGRTNYADSVKGRFTISRDNAKYTVYLQMNSLKPEDTAVYYCAARYYSPRYWFRYDSWGQCTQVTVSS” the “polyreactivity (PSR sort gate)” value was “high polyreactivity”.
